The target of the assay is T1, B3GNT2 (Homo sapiens, UniProt Q9NY97).
T1 construct: The respective ORFs of candidate genes [CD274 (NM_014143), MCL1 (NM_021960), JUNB (NM_002229), and B3GNT2 (NM_006577)] were synthesized; expressed in transfected cells; host or cells: A375 melanoma cells (lentiviral ORF overexpression)
T1 sequence (Q9NY97 1-397): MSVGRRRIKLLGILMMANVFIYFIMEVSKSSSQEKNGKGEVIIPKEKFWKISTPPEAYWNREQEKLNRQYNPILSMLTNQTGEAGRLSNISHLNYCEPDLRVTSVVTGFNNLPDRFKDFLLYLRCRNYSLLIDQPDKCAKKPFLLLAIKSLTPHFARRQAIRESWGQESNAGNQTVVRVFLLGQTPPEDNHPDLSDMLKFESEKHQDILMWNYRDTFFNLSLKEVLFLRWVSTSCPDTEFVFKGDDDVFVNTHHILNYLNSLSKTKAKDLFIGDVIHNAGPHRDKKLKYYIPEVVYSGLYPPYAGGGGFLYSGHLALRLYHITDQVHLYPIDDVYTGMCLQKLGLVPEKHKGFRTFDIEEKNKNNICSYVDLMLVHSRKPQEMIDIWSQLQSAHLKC
Briefly: Co-IP of FLAG-tagged B3GNT2 followed by mass spectrometry. The assay is classed as cell-based. More on the design: C-term IgG / C-term flag: unit not given here. The following applies: Co-IP followed by mass spectrometry of B3GNT2; for C-term flag / C-term IgG: C-term tag; for C-term flag / N-term FLAG: FLAG pull-down; for C-term IgG / N-term IgG: IgG pull-down; for N-term FLAG / N-term IgG: N-term tag. In short, it runs like this: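 Co-purifying proteins were identified by fractionated nano-LC–MS/MS on an Orbitrap Elite, run data-dependent. Beforehand, lysates in 1% Triton X-100/HEPES buffer were incubated overnight at 4° C with anti-FLAG or […] and pulled down on Protein A/G magnetic beads for 4 h. Duplicate biological replicates.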

B1: HNRNPH1 (protein, UniProt P31943 1-449, looked up)
Heterogeneous nuclear …: MMLGTEGGEGFVVKVRGLPWSCSADEVQRFFSDCKIQNGAQGIRFIYTREGRPSGEAFVELESEDEVKLALKKDRETMGHRYVEVFKSNNVEMDWVLKHTGPNSPDTANDGFVRLRGLPFGCSKEEIVQFFSGLEIVPNGITLPVDFQGRSTGEAFVQFASQEIAEKALKKHKERIGHRYIEIFKSSRAEVRTHYDPPRKLMAMQRPGPYDRPGAGRGYNSIGRGAGFERMRRGAYGGGYGGYDDYNGYNDGYGFGSDRFGRDLNYCFSGMSDHRYGDGGSTFQSTTGHCVHMRGLPYRATENDIYNFFSPLNPVRVHIEIGPDGRVTGEADVEFATHEDAVAAMSKDKANMQHRYVELFLNSTAGASGGAYEHRYVELFLNSTAGASGGAYGSQMMGGMGLSNQSSYGGPASQQLSGGYGGGYGGQSSMSGYDQVLQENSSDFQSNIA
For B1, the C-term flag worked out at 15, the “C-term IgG” value amounted to 11, the “N-term FLAG” value was 11 and the “N-term IgG” value stood at 11.

B2: CPT1A (protein)
chain: AEAHQAVAFQFTVTPDGIDLRLSHEALRQIYLSGLHSWKKKFIRFKNGIITGVYPASPSSWLIVVVGVMTTMYAKIDPSLGIIAKINRTLETANCMSSQTKNVVSGVLFGTGLWVALIVTMRYSLKVLLSYHGWMFTEHGKMSRATKIWMGMVKIFSGRKPMLYSFQTSLPRLPVPAVKDTVNRYLQSVRPLMKEEDFKRMTALAQDFAVGLGPRLQWYLKLKSWWATNYVSDWWEEYIYLRGRGPLMVNSNYYAMDLLYILPTHIQAARAGNAIHAILLYRRKLDREEIKPIRLLGSTIPLCSAQWERMFNTSRIPGEETDTIQHMRDSKHIVVYHRGRYFKVWLYHDGRLLKPREMEQQMQRILDNTSEPQPGEARLAALTAGDRVPWARCRQAYFGRGKNKQSLDAVEKAAFFVTLDETEEGYRSEDPDTSMDSYAKSLLHGRCYDRWFDKSFTFVVFKNGKMGLNAEHSWADAPIVAHLWEYVMSIDSLQLGYAEDGHCKGDINPNIPYPTRLQWDIPGECQEVIETSLNTANLLANDVDFHSFPFVAFGKGIIKKCRTSPDAFVQLALQLAHYKDMGKFCLTYEASMTRLFREGRTETVRSCTTESCDFVRAMVDPAQTVEQRLKLFKLASEKHQHMYRLAMTGSGIDRHLFCLYVVSKYLAVESPFLKEVLSEPWRLSTSQTPQQQVELFDLENNPEYVSSGGGFGPVADDGYGVSYILVGENLINFHISSKFSCPETGIISQGPSSDT
As for B2, the C-term flag was determined as 2, the “C-term IgG” value is reported as 0, the “N-term FLAG” value amounted to 2 and the “N-term IgG” value was 0.

B3: PUF60 (protein)
chain: MATATIALQVNGQQGGGSEPAAAAAVVAAGDKWKPPQGTDSIKMENGQSTAAKLGLPPLTPEQQEALQKAKKYAMEQSIKSVLVKQTIAHQQQQLTNLQMAAVTMGFGDPLSPLQSMAAQRQRALAIMCRVYVGSIYYELGEDTIRQAFAPFGPIKSIDMSWDSVTMKHKGFAFVEYEVPEAAQLALEQMNSVMLGGRNIKVGRPSNIGQAQPIIDQLAEEARAFNRIYVASVHQDLSDDDIKSVFEAFGKIKSCTLARDPTTGKHKGYGFIEYEKAQSSQDAVSSMNLFDLGGQYLRVGKAVTPPMPLLTPATPGGLPPAAAVAAAAATAKITAQEAVAGAAVLGTLGTPGLVSPALTLAQPLGTLPQAVMAAQAPGVITGVTPARPPIPVTIPSVGVVNPILASPPTLGLLEPKKEKEEEELFPESERPEMLSEQEHMSISGSSARHMVMQKLLRKQESTVMVLRNMVDPKDIDDDLEGEVTEECGKFGAVNRVIIYQEKQGEEEDAEIIVKIFVEFSIASETHKAIQALNGRWFAGRKVVAEVYDQERFDNSDLSA
For the molecule B3, the C-term flag stood at 6, the “C-term IgG” value is recorded as 5, the “N-term FLAG” value came out at 6 and the “N-term IgG” value was found to be 5.

B4: COPA (protein)
chain: MLTKFETKSARVKGLSFHPKRPWILTSLHNGVIQLWDYRMCTLIDKFDEHDGPVRGIDFHKQQPLFVSGGDDYKIKVWNYKLRRCLFTLLGHLDYIRTTFFHHEYPWILSASDDQTIRVWNWQSRTCVCVLTGHNHYVMCAQFHPTEDLVVSASLDQTVRVWDISGLRKKNLSPGAVESDVRGITGVDLFGTTDAVVKHVLEGHDRGVNWAAFHPTMPLIVSGADDRQVKIWRMNESKAWEVDTCRGHYNNVSCAVFHPRQELILSNSEDKSIRVWDMSKRTGVQTFRRDHDRFWVLAAHPNLNLFAAGHDGGMIVFKLERERPAYAVHGNMLHYVKDRFLRQLDFNSSKDVAVMQLRSGSKFPVFNMSYNPAENAVLLCTRASNLENSTYDLYTIPKDADSQNPDAPEGKRSSGLTAVWVARNRFAVLDRMHSLLIKNLKNEITKKVQVPNCDEIFYAGTGNLLLRDADSITLFDVQQKRTLASVKISKVKYVIWSADMSHVALLAKHAIVICNRKLDALCNIHENIRVKSGAWDESGVFIYTTSNHIKYAVTTGDHGIIRTLDLPIYVTRVKGNNVYCLDRECRPRVLTIDPTEFKFKLALINRKYDEVLHMVRNAKLVGQSIIAYLQKKGYPEVALHFVKDEKTRFSLALECGNIEIALEAAKALDDKNCWEKLGEVALLQGNHQIVEMCYQRTKNFDKLSFLYLITGNLEKLRKMMKIAEIRKDMSGHYQNALYLGDVSERVRILKNCGQKSLAYLTAATHGLDEEAESLKETFDPEKETIPDIDPNAKLLQPPAPIMPLDTNWPLLTVSKGFFEGTIASKGKGGALAADIDIDTVGTEGWGEDAELQLDEDGFVEATEGLGDDALGKGQEEGGGWDVEEDLELPPELDISPGAAGGAEDGFFVPPTKGTSPTQIWCNNSQLPVDHILAGSFETAMRLLHDQVGVIQFGPYKQLFLQTYARGRTTYQALPCLPSMYGYPNRNWKDAGLKNGVPAVGLKLNDLIQRLQLCYQLTTVGKFEEAVEKFRSILLSVPLLVVDNKQEIAEAQQLITICREYIVGLSVETERKKLPKETLEQQKRICEMAAYFTHSNLQPVHMILVLRTALNLFFKLKNFKTAATFARRLLELGPKPEVAQQTRKILSACEKNPTDAYQLNYDMHNPFDICAASYRPIYRGKPVEKCPLSGACYSPEFKGQICRVTTVTEIGKDVIGLRISPLQFR
Consider B4, for which the C-term flag is given as 2, the “C-term IgG” value is given as 0, the “N-term FLAG” value is 2 and the “N-term IgG” value was 0.

B5: P4HA2 (protein)
chain: EFFTSIGHMTDLIYAEKELVQSLKEYILVEEAKLSKIKSWANKMEALTSKSAADAEGYLAHPVNAYKLVKRLNTDWPALEDLVLQDSAAGFIANLSVQRQFFPTDEDEIGAAKALMRLQDTYRLDPGTISRGELPGTKYQAMLSVDDCFGMGRSAYNEGDYYHTVLWMEQVLKQLDAGEEATTTKSQVLDYLSYAVFQLGDLHRALELTRRLLSLDPSHERAGGNLRYFEQLLEEEREKTLTNQTEAELATPEGIYERPVDYLPERDVYESLCRGEGVKLTPRRQKRLFCRYHHGNRAPQLLIAPFKEEDEWDSPHIVRYYDVMSDEEIERIKEIAKPKLARATVRDPKTGVLTVASYRVSKSSWLEEDDDPVVARVNRRMQHITGLTVKTAELLQVANYGVGGQYEPHFDFSRNDERDTFKHLGTGNRVATFLNYMSDVEAGGATVFPDLGAAIWPKKGTAVFWYNLLRSGEGDYRTRHAACPVLVGCKWVSNKWFHERGQEFLRPCGSTEVD
In the case of B5, the C-term flag came to 4, the “C-term IgG” value turned out to be 0, the “N-term FLAG” value is listed as 0 and the “N-term IgG” value was determined as 0.

B6: DDX17 (protein)
chain: MPTGFVAPILCVLLPSPTREAATVASATGDSASERESAAPAAAPTAEAPPPSVVTRPEPQALPSPAIRAPLPDLYPFGTMRGGGFGDRDRDRDRGGFGARGGGGLPPKKFGNPGERLRKKKWDLSELPKFEKNFYVEHPEVARLTPYEVDELRRKKEITVRGGDVCPKPVFAFHHANFPQYVMDVLMDQHFTEPTPIQCQGFPLALSGRDMVGIAQTGSGKTLAYLLPAIVHINHQPYLERGDGPICLVLAPTRELAQQVQQVADDYGKCSRLKSTCIYGGAPKGPQIRDLERGVEICIATPGRLIDFLESGKTNLRRCTYLVLDEADRMLDMGFEPQIRKIVDQIRPDRQTLMWSATWPKEVRQLAEDFLRDYTQINVGNLELSANHNILQIVDVCMESEKDHKLIQLMEEIMAEKENKTIIFVETKRRCDDLTRRMRRDGWPAMCIHGDKSQPERDWVLNEFRSGKAPILIATDVASRGLDVEDVKFVINYDYPNSSEDYVHRIGRTARSTNKGTAYTFFTPGNLKQARELIKVLEEANQAINPKLMQLVDHRGGGGGGGGRSRYRTTSSANNPNLMYQDECDRRLRGVKDGGRRDSASYRDRSETDRAGYANGSGYGSPNSAFGAQAGQYTYGQGTYGAAAYGTSSYTAQEYGAGTYGASSTTSTGRSSQSSSQQFSGIGRSGQQPQPLMSQQFAQPPGATNMIGYMGQTAYQYPPPPPPPPPSRK
B6: the C-term flag was found to be 30, the “C-term IgG” value is on record as 22, the “N-term FLAG” value is reported as 23 and the “N-term IgG” value worked out at 23.

B7: TM9SF1 (protein)
chain: PGVEGVTHYKAGDPVILYVNKVGPYHNPQETYHYYQLPVCCPEKIRHKSLSLGEVLDGDRMAESLYEIRFRENVEKRILCHMQLSSAQVEQLRQAIEELYYFEFVVDDLPIRGFVGYMEESGFLPHSHKIGLWTHLDFHLEFHGDRIIFANVSVRDVKPHSLDGLRPDEFLGLTHTYSVRWSETSVERRSDRRRGDDGGFFPRTLEIHWLSIINSMVLVFLLVGFVAVILMRVLRNDLARYNLDEETTSAGSGDDFDQGDNGWKIIHTDVFRFPPYRGLLCAVLGVGAQFLALGTGIIVMALLGMFNVHRHGAINSAAILLYALTCCISGYVSSHFYRQIGGERWVWNIILTTSLFSVPFFLTWSVVNSVHWANGSTQALPATTILLLLTVWLLVGFPLTVIGGIFGKNNASPFDAPCRTKNIAREIPPQPWYKSTVIHMTVGGFLPFRYPPFIPWLLLSGS
B7: the C-term flag is 4, the “C-term IgG” value is 0, the “N-term FLAG” value is reported as 0 and the “N-term IgG” value amounted to 0.

Source of the values: patent publication US20240261333A1, “NOVEL TARGETS FOR ENHANCING ANTI-TUMOR IMMUNITY” (THE BROAD INSTITUTE, INC., priority 2021, published 2024).
